Source: patent publication US20230131598A1 (GlaxoSmithKline, published 2023)

Biological target: T1, human TIM-3 (T Cell Immunoglobulin and Mucin Domain-3) (human, UniProt Q8TDQ0 22-301)
T1 construct: The occupancy sentence names neither the receptor nor its form; also called HAVCR2
T1 sequence: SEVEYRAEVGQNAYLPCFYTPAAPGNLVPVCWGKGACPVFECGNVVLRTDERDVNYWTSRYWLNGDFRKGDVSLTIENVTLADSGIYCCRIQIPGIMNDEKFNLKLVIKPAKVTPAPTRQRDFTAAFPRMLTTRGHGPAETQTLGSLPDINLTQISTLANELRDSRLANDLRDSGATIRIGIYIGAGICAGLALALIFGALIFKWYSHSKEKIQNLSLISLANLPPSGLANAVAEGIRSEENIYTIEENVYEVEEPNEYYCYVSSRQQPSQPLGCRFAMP
Assay: receptor occupancy in subjects of a corresponding Phase 1 study (method not described)

B1: cobolimab (antibody, human IgG4 S228P, kappa, V domains shown)
VH: EVQLLESGGGLVQPGGSLRLSCAAASGFTFSSYDMSWVRQAPGKGLDWVSTISGGGTYTYYQDSVKGRFTISRDNSKNTLYLQMNSLRAEDTAVYYCASMDYWGQGTTVTVSS
VL: DIQMTQSPSSLSASVGDRVTITCRASQSIRRYLNWYHQKPGKAPKLLIYGASTLQSGVPSRFSGSGSGTDFTLTISSLQPEDFAVYYCQQSHSAPLTFGGGTKVEIKR
notes: also called Anti-TIM3
Q: Does B1 bind?
A: Result: binds
